In the DeepSol protein solubility set:

Experiment: soluble on expression in E. coli; label from the status in PepcDB or PDB records

Soluble on expression in E. coli, not soluble:
MGSDKIHHHHHHMEESKELFKDIEKHLLNDVRPSEYLNEQLNKGNLNKYPFTMLSDLVHTEQNKEHHPEGNVWNHTLLVVDKAAENREKSSDKRAFMWGSLLHDIGKAKTTKVRKGKITSYNHDKVGETMSREFLQCFSEDEDFIYKVIKLVRWHMQTLFVVKNMSFADSKNMLKETSLDEIALLSLCDRLGRQPMSNGKIQEEKENVRTFVRKVKELNKV
MGSDKIHHHHHHMEFNDQRVRYFFEAARLGGVRAAADRMDIAASAVSRQIRQLEMELGATLFERHRRGFQPTEAGRLLLDYHRKQLSEQEAVLTALRELKGIHRGHVSVVTGGGVISDLIDAIHPFSQRYPQITVGIDIRGTNDIVRAVLEDRAHIGVVFYTAPNPLLRVHRSSIQPLYAVAAPDHPLARAERPIRLEELARHKLALPDVSFGVRQILRDAEKAEQCQLEPAIVTNSFRVMVEYALTGQAATVQPRFSVRRELESGQLQAIPIQQRNLQQAEVHLITHHGRRLSPAAARLLETLAASMPAFRDSAVTP
MGSDKIHHHHHHMEFYERAKKYEYKFTDTEDMIIEYMRKNKEEIVKLSIQSLADKFFTVPNTIVRLCKKMEYDGFSQLKNNLKEELKNENKEPKNGFESDIKKTLELIDYEKINKVADIIQKSRSIIVYGIGQNIPLCEILVKEIRGGHDNITYYSQRHEVLHDIGKLGEQDMFFALSLSGETKEVIEAAKTAVNKGCKVVALTHICENQLQQIADISLYCYSTIKQVNGYNISDKVPIMMIMRAIIEQYWLR
MGSDKIHHHHHHMEGEYRALNDISLESNVLFFGKESCLPNYFYPGNNVRKNYVIHYILKGKGTFSSANHPSIELKAGDIFILPKGIPCFYKADGKEPWTYLWIGFSGLKIKNILSRSLLLSQRYLHQVQNSHFTDSLLKLFDALHNPDTSTNNDLLIESLIYQTFYYLNSEYPAQNKTNIKSSIRLKTATKYLYDNFTDNNCSIYLLCNKLGVSRSYLYNIFKEGMNLSPQQFLIKLRMEEAKNKLKNSQNSIQEISTSVGYTDTFTFSKAFKKYSGFSPKNYRQIKSSEN
MGSDKIHHHHHHMEIGQRFLVQLEETGQYFVNYQDGILIELAFDATVGKQSPAFSDLEHTAAYLEEHLRSHQTQALLLASKIHAYDASPVERITQMISIHSFFSTHRLVHPLNAYSTALLISRLEATDPQLQRTVELYRLAKKSHRFIVSPLLVSFLFLNALRRGEIATIHARIEATYDILKKRFGRSQQTYVTALLLALLPEDDQATYIAQVVQSRNLYRKHGIPLSFHGLLALLGDPRMHQTALEGLADQFRNTPHFKYRKDLVFLTAVRLYLADHPTLHQLFAPFSPSTLDDTSNLLPVYLFPVDLTDTSHATDGGMTDGGFDGGDGGGGGGD
MGSDKIHHHHHHMEKDKKIPAKIYPFYPNGQFYFERGVEAFRDQRIKEAIRYLVRASELEPGEAVILCQLAICYTEIGQFHKSNQLLREVLEQRNGNMEYCYYFIANNFAYMKDYRRALQYANRYLDSSTDGEYTEEAKDLIEVLLEETPFGETIENGFSKLEQEFYSYKKEINRYLAEEDSASACDILRKVIDEKPNFWPAYNQLASLYFEQLKEEEGVRVLSDLLSRNPGNLLGICDLFIYHFYKGNRKEADELYLELRDVLPVLAHHKEKLGLIHAMMGEYEEADDLLEQVADLEVTERSKYYYFRAKSSYYLGDVEGAKMFWHSFLECDLYEDVRFPWEQEPDLTNDTRLVLEMLQEEDDLTHMLGVYALTISGNRPELVLFHPLLDMSDWSYMEHLMFTNFDYFPDGAIEQNGYLIAKAMIILKENGILLNEEYMALYKQMFSLVLIDAGKDLILGRYTIETVASAIAKLFLPHLKLQLVEEFECSKCARDIERVLSR
MGSDKIHHHHHHMEKKRILFLANHFITLYSFRKEMIKEMVKKGHELYLSLPKSEENKYFEDLGCHIVETEIDRRGVNPMKDLKLIYFYKKMIPLVNPDIIFSYTIKPNIYGTIASNGKYKQVCNITGTGETFLKRSIVSTICKVLYKLSIKKCYKVFFQNTGDRDFFIKEGLIRENYAMLPGSGCNLQQHVFMPLPEGDEIRFLFIGRVMKLKGIDQYLQAAEIVKKKYPNTKFYIAGWNEQLEYMKLVEEAQKTGSVEYIGFRKDIDQWIEKCHCTILPSHGGEGVPNVLLESSATGRICIGSKINGTMDVIDDGKTGYLFNTGDGEDLARQIEKFIQLSPEEKASMGKVAREKVEREFDRQIVVKAYLDEVTKC
MGSDKIHHHHHHMEKLFTYKEFVDMMQKYGIRHTKRKLRRGENLMENASKFSNVVLLINGYISSYTYESPEKLLSIFEPGIFLRYSILEDQPEFVTNIALSDNCEVYEYKKEDIEYALTLFPENFGFQYFFLKRIGRHLYYRALLNGKEHKEKLYYAMKYLGELIGKTDENGNVSLPPEVTLKVLIEYSTLSKAAFYRQRIRLLEQEILKPHENTFIVQKKVASHYENQLTSI
MGSDKIHHHHHHMEKLQESMYQLIVETSTNLPNDVRRAIAEAKAKENAGTRAALSLSTITENIKMADENISPICQDTGMPTFEIKVPVGVNQIEMKKAIYAAIEQATKDGKLRPNSVDSLTGKNSGNNLGEGTPVIHFEQWEEDYIDARLILKGGGCENKNIQYSLPAELEGLGRAGRDLDGIRKCIMHSVYQAQGQGCSAGFIGVGIGGDRTTSYSLAKEQLFRKVDDVNPNDDLRKLEEYVLENANKLGIGTMGFGGEATLLGCKVGAMNRLPASFFVSVAYNCWAFRRLGVELDAETGEIKKWLYKDGERVDLNEVASQVAATAETTEVREVVLEAPVTEEQIRELKVGDVVIINGMLHTGRDAIHHHLMDHDAPIDLDGQIIYHCGPVMLQDDAGEWHVKAAGPTTSIREEPYQGDIMKKFGIRAVIGKGGMGPKTLKALQEHGGVYLNAIGGAAQYYADCIKKVKGVDLMEFGIPEAMWHLEVEGFAAIVTMDSHGNSLHEDVDKSSLEKLEQFAEKVF
MGSDKIHHHHHHMEMFAQFSVEGQRMYGMLHTPDGSATGQQAPPQGWPSVVIVHGFTGDKVSSHRLLVLLARRLTAAGIAALRFDCRGSGESQGDFSEMTVGREVQDVEAAFDYVRHQPGLDPERVMLLGYSMGGLVSALAAEKVRPHRFALWSPALPELWLRHLRGGLLPPVISDYGGWPLGRAFLQEVVQTRPLEAAARWGGVAHVFHGDRDQTCPVEWGVRTPKPCAATPPRFPARGTRMTRSNR
MGSDKIHHHHHHMEMVMKNKRVAIIGAGPSGIAQLRAFESAEKQGHEIPELVCFEKQDTWGGQWNYSWRTGTDSYGEPVHSSMYRNLWSNGPKEVLEFAEYSFDEHFGKPISSYPPREVLWDYIAGRAKKSNVEKYIKFAHVVRWVSFDEATKLFTVTVENLRTGETSSDTYDNVIVGAGHFSFPNVPHFDGVETFPGQIMHAHEFRGAEAVADKDILLIGASYSAEDIGTQAYKMGARSVTFSYRSNPMGYEWPEEMTELPLVERFDGSEVHFVNGEKRKVDIVVFCTGYLHHYPFMPSELTLSSPNNLYPDTLYRGVVSEANNQLFWLGAQDQWLTFNMFDAQAWYVRDVILGRVALPSKEAQRNHMDKWLSRFEGLKSENDQIDFQCDYVEDLIDQTDYPSFDLKEVANILKGWVKSKEEDILNYRDYTYTSVMTGTTSVEHHTPWMIELDDSLERYLSEPQEDEARQVYRGKKVRDKA
MGSDKIHHHHHHMENIALLGIDLGKHIFHVHAQDKAGHQLWRRKLNRKQLVELVANTPACRIVMESCSGAHHFARRFLQFGHDVKLIAPQYVKPFVKGNKNDFVDAEAICEAASRPAMRFAAVRNEQQQTISALHRTRDMLIRSRGSAHNQIHAYLVEFGVAIGTGPAAIRKLPAVLQAMTYRRALSPCWSNFGITFFISTSRSPLSSAN
MGSDKIHHHHHHMENIAQWVGIDVSKATLDVYIRPLGKAMIVANTESEISNLVKLLLSYSLNLIVLEATGGLETELVIQLQAALLPVALINPRQGRDFAKATGKLAKTDAIDAQILAHFGEAMKPQVLAIQSETARQLSELISRRRQLVEMQTAEKNRRSLTRGQALADIEAHIEYLEEHLKQLNQKIAELTQNNLQWIDKVNLLKSTPGIGQVISTTLVSDLPELGQLTAKQISRLVGVAPINHDSGQHKGKRMINGGRAHVRATLYMGAVVAMVHNPVIKAFYERLIERGKSKKLALTACVHKMLVILNAMVRDNLPWRVTENLQPIANA
MGSDKIHHHHHHMENVSSVTSDGSVADVHAERWQELLARLDADAPDIAEGTAAKLLATIPGYELVDAGPIRESSIRNTALIIRVINAGTEPKAEDLPEALRLADERIAQNVPLGSVLHGFRMSLGEILEHLVQLGPEYNIDPGRMLRWSTLMWAVNDAFSTRATRVYRDHEVATAIADSVRRSEWIGKAVSEGSELSELLWGAAMYDVPADTPLRALAATSPDHAKAETQIQKWTQRAGVRVLASVQPSVIVGIVIGEPKRNVDGPGFAVGLGRAEVLSKLADSYKDASLVLKAADNLKLNEVQRAQDLSWKLAIHASPRVTEILAQKYVKPLRESGEFAHEIVESLRAYVDNQMNIPAAARSIPVHVNTLRYRLRRFEELTGCYLEDTSTVIEVSWVLEVFGREL
MGSDKIHHHHHHMEQLRAELSHLLGEKLSRIECVNEKADTALWALYDSQGNPMPLMARSFSTPGKARQLAWKTTMLARSGTVRMPTIYGVMTHEEHPGPDVLLLERMRGVSVEAPARTPERWEQLKDQIVEALLAWHRQDSRGCVGAVDNTQENFWPSWYRQHVEVLWTTLNQFNNTGLTMQDKRILFRTRECLPALFEGFNDNCVLIHGNFCLRSMLKDSRSDQLLAMVGPGLMLWAPREYELFRLMDNSLAEDLLWSYLQRAPVAESFIWRRWLYVLWDEVAQLVNTGRFSRRNFDLASKSLLPWLA
MGSDKIHHHHHHMERCSVLRIKRLPESLVRKIAAGEVIHNPSFVLKELVENSLDAQADRIVVEIENGGKNMVRVSDNGIGMTREEALLAIEPYTTSKIESEEDLHRIRTYGFRGEALASIVQVSRAKIVTKTEKDALATQLMIAGGKVEEISETHRDTGTTVEVRDLFFNLPVRRKSLKSSAIELRMCREMFERFVLVRNDVDFVFTSDGKIVHSFPRTQNIFERALLILEDLRKGYITFEEELSGLRIKGIVSSREVTRSSRTGEYFYVNGRFVVSEELHEVLMKVYDLPKRSYPVAVLFIEVNPEELDVNIHPSKIVVKFLNEEKVKKSLEETLKRNLARKWYRSVAYEEISSRALSVAEAPSHRWFLVKGKYAVVEVEDGLLFVDLHALHERTIYEEILSKKSWGKRRVKRNITVVLSREEKQKLEEYGFSFQGEEGALKVIEIPEFLTEDVVEEFFRDFPVDEKLKERIALAACKLATKSGEFDEEIASKLLDVFFKKRFERCPHGRPISFKISYEDMDRFFER
MGSDKIHHHHHHMERTDDESNKQPVILPPMIRIAYCTPSLHIPGGVERVLTTKANYLAENGNYDIYILLTDGKGKPPCYTLSPKVKIIQLDIDFEELWELPLWKKVPVYLKKQRIYRRKLSAALSHLKPDITVSLLRREINFITSLKDGSKKIGELHVNRKNYRNFEKNESNFIKELFAKLWMKSLVRHLKKLDKFVVLSEEDRANWPELQNVKVISNPLPFQSGTFSDLNNKRITAAGRYTYQKGFDLLLEAWSKICNRHPDWELHIYGKGNKTTYQVLAGKWKLKNLFLENATPDMLCKYHESSIFVSSSRFEGFGMVIAEAMACGVPAVSFACPCGPKDIIRDGEDGLLVENGKTEELAEKINYLIENEQIRKEMGKKARINVQRFAEDVIMQQWIQLFNNLLNGTKQ
